{"source": "patent CN111320691A", "about": "(CHENG LIANSHENG; LIU JING, dated 2020)", "binders": {"B1": {"name": "单克隆抗体HKB6 (抗人4-1BB抗体) (antibody, mouse IgG1, kappa, V domains shown)", "VH": "QVQLKESGPGLVAPSQSLSITCTVSGFSLTTYDISWIRQPPGKGLEWLGVIWTGGGTNYNSTFMSRLSINKDNSKSQVFLKMNSLQTDDTAIYYCVRVDYWGQGTSVTVSS", "VL": "DVVMTQTPLSLPVSLGDQASISCRSSQSLVHSNGNTYLHWFLQKPGQSPKLLIYKVSNRFPGVPDRFSGSGSGTDFTLKISRVEAEDLGVYFCSQNTHVPWTFGGGTKLEIKR", "notes": "Whole antibody from a mouse hybridoma, purified on Protein G; also called HKB6单克隆抗体"}}, "key": {"[1]": {"molecular_target": "T1, 人4-1BB on CHO-K1 cells (CHO-h4-1BB) (human, UniProt Q07011 24-255)", "T1 construct": "whole, on cells; also called 高表达人4-1BB的CHO-K1细胞株", "T1 sequence (Q07011 24-255)": "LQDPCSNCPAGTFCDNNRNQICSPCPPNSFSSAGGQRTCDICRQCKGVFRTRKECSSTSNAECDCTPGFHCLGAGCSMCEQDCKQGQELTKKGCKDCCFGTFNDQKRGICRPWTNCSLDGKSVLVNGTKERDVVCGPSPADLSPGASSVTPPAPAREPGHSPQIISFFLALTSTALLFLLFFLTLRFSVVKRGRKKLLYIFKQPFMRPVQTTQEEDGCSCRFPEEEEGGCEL", "test": "FACS on CHO-h4-1BB cells, antibody 20 to 0.027 ug/ml"}, "[2]": {"molecular_target": "T2, 人4-1BB (h4-1BB) antigen protein, coated on ELISA plates (human, UniProt Q07011 24-186)", "T2 construct": "Soluble antigen for plate coating; also called 人抗原4-1BB; 抗原人H4-1BB蛋白", "T2 sequence (Q07011 24-186 limits assumed)": "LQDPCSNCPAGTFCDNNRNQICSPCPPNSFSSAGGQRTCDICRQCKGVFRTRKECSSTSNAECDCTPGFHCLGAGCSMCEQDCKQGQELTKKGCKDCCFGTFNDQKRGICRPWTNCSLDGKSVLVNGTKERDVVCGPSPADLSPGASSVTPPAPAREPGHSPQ", "test": "ELISA, antigen coated at 1 ug/ml, antibody 1000 to 0.24 ng/ml"}}, "data": [{"binder": "B1", "values": [{"measurement": "binding result", "setting": "[1]", "value": "binds"}, {"measurement": "binding result", "setting": "[2]", "value": "binds"}]}]}
